Assay results published in PMC11543891, “Expression, purification, and characterization of diacylated Lipo-YcjN from Escherichia coli” (The Journal of Biological Chemistry, 2024).

Target: the molecule itself
Assay: SEC; Hiload 16/600 Superdex 200 pg, 25 mM Tris-HCl pH 7.5, 100 mM NaCl, run without LMNG and with 0.01% LMNG; elution volumes compared with gel filtration standards

B1: Lipo-YcjN (diacylated lipoprotein form of E. coli YcjN, from the construct SP-YcjN-10H) (natural protein, E. coli K-12, UniProt P76042 21-430, looked up)
chain: CKEENKTNVSIEFMHSSVEQERQAVISKLIARFEKENPGITVKQVPVEEDAYNTKVITLSRSGSLPEVIETSHDYAKVMDKEQLIDRKAVATVISNVGEGAFYDGVLRIVRTEDGSAWTGVPVSAWIGGIWYRKDVLAKAGLEEPKNWQQLLDVAQKLNDPANKKYGIALPTAESVLTEQSFSQFALSNQANVFNAEGKITLDTPEMMQALTYYRDLTANTMPGSNDIMEVKDAFMNGTAPMAIYSTYILPAVIKEGDPKNVGFVVPTEKNSAVYGMLTSLTITAGQKTEETEAAEKFVTFMEQADNIADWVMMSPGAALPVNKAVVTTATWKDNDVIKALGELPNQLIGELPNIQVFGAVGDKNFTRMGDVTGSGVVSSMVHNVTVGKADLSTTLQASQKKLDELIEQH
modifications: diacylated at cysteine 21 (S-diacylglyceryl-cysteine, the new N terminus), acyl chain compositions [16:0, 16:0] and [16:0, 18:1]
notes: YcjN, E. coli K-12, expressed with its native N-terminal signal peptide; by intact mass the purified protein is the processed lipoprotein that begins at the diacylated cysteine 21; Expressed as the full-length precursor (SP-YcjN-10H); LC-MS masses of 46,699 and 46,726 Da fit the protein cut before C21 and diacylated; No tag removal is described; also called lipidated YcjN
  binding result: binds
